The target of the assay is mouse TIGIT, full length, on CHO-K1 cells (mouse) (UniProt P86176). Put plainly: flow cytometry, CHO-K1 cells transiently transfected with mouse TIGIT; target taken from the legend paragraph 32 and from paragraph 286 (FIG. 4A = mouse TIGIT); paragraph 286 however names GNE10A7, not G1GD7, as the control for mouse TIGIT.

This passage reports EC50 (read off the curve) results from US20220064294A1.

mouse TIGIT, full length, on CHO-K1 cells (mouse), sequence (P86176 29-249 limits assumed): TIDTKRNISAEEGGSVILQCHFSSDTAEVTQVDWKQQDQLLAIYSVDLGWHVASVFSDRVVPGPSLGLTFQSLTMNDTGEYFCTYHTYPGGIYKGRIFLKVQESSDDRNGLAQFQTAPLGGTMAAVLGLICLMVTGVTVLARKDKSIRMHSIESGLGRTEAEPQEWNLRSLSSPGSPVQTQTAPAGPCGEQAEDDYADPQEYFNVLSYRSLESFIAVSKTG

Consider eBioscience G1GD7 (antibody), for which the concentration giving a half-maximal response (EC50 (read off the curve)) came out at 0.8 nM.
